This note sets out measurements from US20150351390A1, “COMPOSITIONS AND METHODS FOR AUXIN-ANALOG CONJUGATION” (PIONEER HI-BRED INTERNATIONAL, INC., priority 2012, published 2015).

Entries after “also recorded” stand apart in the source; their conditions may differ.

Holding throughout (type): biochemical
Series [1] in a line: LC-MS assay of GH3 conjugation of IAA with Asp or Glu. The settings on record: for Detected auxin conjugates: IAA-Asp / Detected auxin conjugates: IAA-Glu: LC-MS; for Detected auxin conjugates: IAA-Asp: IAA with Asp; for Detected auxin conjugates: IAA-Glu: IAA with Glu. The gist of the method: (§1)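 Amino acid conjugates of IAA, 2,4-D or dicamba measured by LC-MS against conjugate standards, with kinetic parameters fitted to Michaelis-Menten initial velocities. Reactions: 5 mM each of auxin, ATP and Asp or Glu with 44 to 164 μg/mL purified His-tagged GH3 (E. coli-expressed), pH 8.0 Tris, 5 mM MgCl2, 1 mM DTT, 30 °C for 3 h.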

Series [2] can be described thus: LC-MS assay of GH3 conjugation of 2,4-D with Asp or Glu. The settings on record: for Detected auxin conjugates: 2,4-D-Asp / Detected auxin conjugates: 2,4-D-Glu: LC-MS; for Detected auxin conjugates: 2,4-D-Asp: 2,4-D with Asp; for Detected auxin conjugates: 2,4-D-Glu: 2,4-D with Glu. The gist of the method: as §1
Series [3] is described as follows: LC-MS assay of GH3 conjugation of dicamba with Asp or Glu. As to conditions: for Detected auxin conjugates: Dicamba-Asp / Detected auxin conjugates: Dicamba-Glu: LC-MS; for Detected auxin conjugates: Dicamba-Asp: dicamba with Asp; for Detected auxin conjugates: Dicamba-Glu: dicamba with Glu. How it is done:
To detect and monitor the formation of acyl conjugates with 2,4-D or dicamba, a sensitive LC-MS method was developed using the respective amino acid conjugate standards. […] […] […] The supernatant was diluted 20× in water and then analyzed by LC-MS (AB Sciex 4000 QTrap coupled with Shimadzu Nexera UHPLC) using a Phenomenex Luna 3 μm Phenyl-Hexyl (00B-4256-Y0) column. The concentration of the conjugates was calculated based on the standards. Kinetic parameters were estimated by fitting initial velocity values to the Michaelis-Menten equation.
The GH3 superfamily conjugase activity analysis of IAA, 2,4-D or dicamba with Asp or Glu was done using LC-MS to analyze the final conjugate products as described in Example 1. Protein sequences of GH3 homologs (Table 3) were obtained from public databases (NCBI, http://www.ncbi.nlm.nih.gov/) by Blast analysis of AtGH3.17 protein sequence (accession # Q9FZ87). Coding sequences were designed for optimal expression in E. coli based on the protein sequences and synthesized. Synthesized coding sequences along with N-term his-tag coding sequences were cloned into a pET24a-based E. coli expression vector. The E. coli expression vectors were transformed into OverExpress C41(DE3) cells (Lucigen) for protein expression. Recombinant E. coli strains were inoculated into 5 ml LB media supplemented with 40 mg/L kanamycin and cultured overnight at 37° C. The overnight culture (0.5 mL) was inoculated into 50 mL LB medium plus 40 mg/L kanamycin and grown at 30° C. until OD600 reached 0.6. The cultures were induced with 0.2 mM IPTG at 16° C., 230 rpm overnight. Cells were harvested by centrifugation at 7,000 rpm for 10 mins. The cell pellet from 50 mL of cell culture was frozen and thawed twice and then lysed in 800 μL lysis buffer A (150 mM NaCl, 50 mM Tris-HCl pH 8.0, 5 mM MgCl2, 10% glycerol) plus 20 mM imidazole, 1 mM DTT, 0.2 mg/ml lysozyme, 1/200 protease inhibitor cocktail (EMD set3, EDTA free) and 1/2000 endonuclease. Lysate was then centrifuged at 13,000 rpm for 30 min at 4° C. Supernatant was loaded onto 200 μL Ni-NTA columns pre-equilibrated with buffer A with 20 mM imidazole at 4° C. Each column was then washed with (1) 2×800 μL of buffer A with 10 mM imidazole, (2) 2×800 μL of buffer A with 20 mM imidazole and (3) 2×200 μL of buffer A with 50 mM imidazole. Protein was eluted with 200 μL of buffer A with 250 mM imidazole. The concentration was measured by Bradford assay. Purified protein was used in conjugation reaction assays as described in example 1.

B1: VvGH3-9: GH3 protein, accession XP_002280738.1 (protein, listed as Vitis vinifera)
chain: MLEKMEEFKAEKVIEEFEELTKDAGRVQRETLKKILEDNASAEYLQKQGLNGRTDPESYQACVPLVTHADLVPYIKRIADGDTSPVLTGKPIKTMSLSSGTTQGKQKYVPFNDELLETTLQIYRTSFAFRNREFPVRNGMALQFIYGSKQFKTEGGLFAGTATTNVFSSSQFKTTMKAIESPCCSPDEVIFGPDFRQSLYCHLLCGLIHHNEIQLVSSTFAHSIVYAFRTFEQVWEQLCADIQDGVLTKDVTVPSIRAVMSKLLKPNPELAEWIYKKCSGLSNWYGVIPALFPNVKYVYGIMTGSMEPYLKKLRHYAGDVPLLSADYGSSEGWIGANINPKLPPELATYAVLPNIGYFEFIPLRGSAEEDRQDKIQSSFESKPVGLTEVKIGEEYEIIVTNFAGLYRYRLGDVVKIAGFHNMTPELQFVCRRNLLLTINIDKNTEKDLQLAVEAAAEVLAPEKVEVIDFTSQVDKSTDPGHYVIFWEISGEVSVEVSSECCNCLDRSFVDAGYISSRKVNSIGPLELKLVRRGTFQKILDHYLGIGGVLSQYKTPRCVNPNNNMVLQILYSNVVKSHFSTAFG
B1: in series [1], the “Detected auxin conjugates: IAA-Asp” value is “No” and the “Detected auxin conjugates: IAA-Glu” value is listed as “No”. Moreover, in series [2], the “Detected auxin conjugates: 2,4-D-Asp” value was “No” and the “Detected auxin conjugates: 2,4-D-Glu” value is given as “No”. Besides, in series [3], the “Detected auxin conjugates: Dicamba-Asp” value was “No” and the “Detected auxin conjugates: Dicamba-Glu” value is recorded as “No”.

B2: PtGH3-10: GH3 protein, accession EEE95291 (protein, listed as Populus trichocarpa)
chain: MEPKNTNGSSRSYEHDIISWFEDISKKAGQVQTETLRRILELNWGVEYLNKWLGDINIQDMDASALESLYTSLVPPASHADLEPYISRIADGDTVPLLTKQPITLLSLSSGTTDGRQKFVPFTDHSARTTLQIFSLAAAYRSRVYPTREGGRILEFIYSSKQFKTKGGLTAGTATTHYYASEEFKIKQEKTKCFTCSPQEVICGGDYEQSTYCHLLLGLFFCDQVEFITSTFAYSIVQAFTAFEDVWRDICNDIKHGTLSERINLAKMRKAVLSIISPNPSLASKIEENCKELETQNWLGLITKLWPNSKYVYSIMTGSMQPYFKKLRHYAGGLALVSADYGSTESWIGANVDPYLPPEDVTFAVIPTFSYYEFMPLYRENHYCGSAIDDFIEDEPVPLSKVKVGQEYEIVLTTFTGLYRCRLGDVVEVAGFHKGTPKLNFICRRKLILTINIDKNTEKDLQLVVEKGSQLLMSKARAELVDFTSHAELETQPGHYIIYWEIKGDVEEEVLGECCKKMDASFVDHGYVVSRRTKSIGPLELCIVKTGTFKKILEYFIGNGAALSQFKTPRCTSNHGLLKILNGSTIKRLYSTAYS
B2: in series [1], the “Detected auxin conjugates: IAA-Asp” value is “Yes” and the “Detected auxin conjugates: IAA-Glu” value is reported as “Yes”. For the same molecule, in series [2], the “Detected auxin conjugates: 2,4-D-Asp” value was “Yes” and the “Detected auxin conjugates: 2,4-D-Glu” value is listed as “Yes”. In addition, in series [3], the “Detected auxin conjugates: Dicamba-Asp” value is recorded as “No” and the “Detected auxin conjugates: Dicamba-Glu” value is recorded as “No”.

B3: PpGH3-2: GH3 protein, accession CAD42871 (protein, listed as Physcomitrella patens)
chain: MALRIENPYYKLLDTDEEIVEDFELMSRNARETQLELLRKILERNANVEYLQRQGLNGRTDEASFKACVPVSTYANIEADVDRIADGDTSPICCVDPPTSFALSSGTTGGKCKLIPRTDALLAQAMKAGQIGSVYRRRAFPRKHEGPPVVMSFQYAGRQFDTKSGLKAGTGTTNFYRSAAFKNAKSAPFSATSPVDIVLGYDVPQQMYCHLLCGLYRCQEVEQMSAIFAYMIVEPFRLLERVWRDICKDIREGTVNERVSDPELRSSVLKVLSPNPELADLIERECAKGWSGIIERLFPNINYIMSIFSGSMLPYVAPMRQYAGSVPLMNADYGASEAWIGINLDPRCPAEDASFTIIPNFAYFEFIPVNRDSAGYDSVEGDEIVGLTDVKVGQEYEIVLTTVGGLYRYRLGDIVKVTGFFNSTPKVAFVCRKGVVLSVNTDKTDEEELRLVVGKASLLLKESNMELADYSSYTDQDSQPGHYVIFWELRSHEHLDMDLLSECCKVLDQSFNNPYMRGRAARTIGPLELAIVKEGAFARLMEQFVRKNGVGASQYKVSRCFKNPATLKHFRDETIATLRSPDFPPELLAAWRPSTKIVG
Take B3: in series [1] (conjugation of IAA with Asp by recombinant GH3 protein, IAA-Asp product by LC-MS), the “kcat (hrs−1) IAA-Asp” value was found to be 2.896 h⁻¹. In series [1] (conjugation of IAA with Glu by recombinant GH3 protein, IAA-Glu product by LC-MS), the “kcat (hrs−1) IAA-Glu” value stood at 19.308 h⁻¹. The “IAA conjugation activity with Asp or Glu” value in series [1] (result in words) was “can also conjugate IAA to Asp and Glu; also recorded: active GH3 conjugase for both IAA and 2,4-D”. Further, in series [2] (conjugation of 2,4-D with Asp by recombinant GH3 protein, 2,4-D-Asp product by LC-MS, 5 mM 2,4-D substrate), the “kcat (hrs−1) 2,4-D-Asp” value came out at 0.699 h⁻¹. Besides, in series [2] (conjugation of 2,4-D with Glu by recombinant GH3 protein, 2,4-D-Glu product by LC-MS, 5 mM 2,4-D substrate), the “kcat (hrs−1) 2,4-D-Glu” value came out at 2.820 h⁻¹. Moreover, the “2,4-D conjugation activity with Asp or Glu” value in series [2] (result in words) is “active GH3 conjugase for both IAA and 2,4-D”. Moreover, in series [3] (16 hour reaction, result in words), the “Conjugation of dicamba with Glu” value was “could conjugate dicamba with Glu; also recorded: able to conjugate dicamba with glutamate”. In series [3] (FIG. 7, result in words), the “Amount of dicamba-Glu conjugates versus amount of protein in the reaction” value was “Increased amount of dicamba-Glu was detected; also recorded: increases with increased amount of PpGH3-2 protein”. Also, the “kcat (16 hrs^−1) dicamba-Glu” value in series [3] (conjugation of dicamba with Glu, 16 hour reaction, protein conc. 983 μg/mL) was 0.024 16 hrs^−1.

B4: VvGH3-7: GH3 protein, accession XP_002272560 (protein, listed as Vitis vinifera)
chain: MESAAGAESNGEHEIIGWFEDVSENTGYVQTQTLCRILELNSGVEYLKKWLGDINVQEMEASALESLYTSLVPLASHADLETYIQRIADGDTSPILTNQPITTLSLSSGTTEGRQKYVPFTRHSSQTTLQIFQLAAAYRSRVYPITPGRRILEFIYSSKQFKTKGGLIAGTATTHYFASEEFKIKQEKTKSFTCSPEEVISSGDYKQSTYCHLLLGLHFHDEVEFITSTFAYSIVQAFRTFEELWRNICSDIREGIVSSRISLPKVRKAVSDIISPNPGLASWIEASCKELEDKDWFGLIPKLWPNAKYVYSIMTGSMQPYLKKLRHYAGDLPLVSADYGSTESWIGANIDPSSPPENVTFAVIPTFSYFEFIPLYRQNQNCSSSIDDFIEDEPVPLSQVKIGQEYEIVLTTFTGLYRYRLGDVVEVAGFHKGTPKLNFICRRKLILTVNIDKNTEKDLQSVVEVGSQLLGKTKAELVDFTSHADLVKQPGHYIIYWEIKGEADDKVLSECCNEMDACFVDQGYIVSRKTHSIGPLELCIVERGTFKKILDHFIGKGAALSQFKTPRCTADEVLLRILNVCTIKRFHSTAYG
For B4, in series [1], the “Detected auxin conjugates: IAA-Asp” value is on record as “Yes” and the “Detected auxin conjugates: IAA-Glu” value is on record as “No”. Further, in series [2], the “Detected auxin conjugates: 2,4-D-Asp” value is “No” and the “Detected auxin conjugates: 2,4-D-Glu” value is recorded as “No”. Also, in series [3], the “Detected auxin conjugates: Dicamba-Asp” value is listed as “No” and the “Detected auxin conjugates: Dicamba-Glu” value is on record as “No”.

B5: RcGH3-5: GH3 protein, accession EEF28472 (protein, listed as Ricinus communis)
chain: MTKNAERVQKETLKKILEENGSAEYLQNLGLDGRTDPESFKICVPICTHGDLEPYIQRIADGDSSPVLTGKPITTISLSSGTTQGKPKYVPFTDQLLDNTLQIFRTSFAYRNREFPLENGKALEFVFSSKQGKTKGGLAAGTATTNLFRNPNYKTALEELQFKSCSPREVIFGSDFHQSLYCHLLCGLIFREDIQFVFSTFAHSIVLAFRTFEQVWEELCDDIRNGELSSRITAPSIRTAMSHLLKPNAELADLIHTKCSGLSNWYGLIPELFPNAKYIYGIMTGSMEPYLKKLRHYAGELPLLSADYGASEGWIAANVNPLLPPELATFAVLPDIGYFEFIPLRRNGDHIYSEPKPIGLSDVKIGEEYEILVTNFAGFYRYRLGDVVKVMGFHNSTPELKFVCRRSLLLSINIDKNTEKDLQLVVEEAAKLLADEKLEVVDFSSLADRSTDPGHYVIFWEISGEPTAEVLQECCNCLDRSFLDAGYVTSRKVKAIGPLELRVVHRGTFQKILDHYLGLGAAVSQFKTPRCVGPANNVVSQILSNNVAKSYVSTAF
With B5, in series [1], the “Detected auxin conjugates: IAA-Asp” value is on record as “Yes” and the “Detected auxin conjugates: IAA-Glu” value is on record as “No”. For the same molecule, in series [2], the “Detected auxin conjugates: 2,4-D-Asp” value was “No” and the “Detected auxin conjugates: 2,4-D-Glu” value is given as “No”. Besides, in series [3], the “Detected auxin conjugates: Dicamba-Asp” value is on record as “No” and the “Detected auxin conjugates: Dicamba-Glu” value is given as “No”.
